Assays:
[1] = molecular target: hu IGF-1R(ECD)-C3-muIgG1Fc (human; mouse); experiment: ORIGEN competition: antibody vs 1 nM Ru-IGF-1 on IGF-1R(ECD)-C3-muFc beads
[2] = molecular target: hu IGF-1R(ECD)-C3-muIgG1Fc (human; mouse); experiment: ORIGEN competition: antibody vs 2 nM Ru-IGF-2 on IGF-1R(ECD)-C3-muFc beads

## murine anti-IGF-1R antibody 1H7 (Santa Cruz Biotechnology)
[1]
  Ki: 16 nM
  Max (%), maximum level of inhibition at 1 µM antibody: 89%
[2]
  Ki: 13.1 nM
  Max (%), maximum level of inhibition at 1 µM antibody: 99%

## murine anti-IGF-1R antibody αIR3 (Calbiochem)
[1]
  Ki: 5.3 nM
  Max (%), maximum level of inhibition at 1 µM antibody: 91%
